This passage reports EC50 of mitogenic activity, NIH 3T3 fibroblast proliferation, in the absence of heparin, EC50 of mitogenic activity, NIH 3T3 fibroblast proliferation, in the presence of 10 U/ml heparin and fold increase in mitogenic activity relative to wild-type FGF-1, in the absence of added heparin results from US20100298220A1.

The target of this test is FGF receptor (on NIH 3T3 fibroblasts). The experiment in a line: cell-based or functional assay.

As for “Ala66→Cys mutant of human FGF-1 (140 amino acid form, His-tagged), oxidized form (from UniProt P05230 16-155) (ligand)”, the EC50 of mitogenic activity, NIH 3T3 fibroblast proliferation, in the absence of heparin worked out at 5.43 ng/mL; the EC50 of mitogenic activity, NIH 3T3 fibroblast proliferation, in the presence of 10 U/ml heparin stood at 0.36 ng/mL; the fold increase in mitogenic activity relative to wild-type FGF-1, in the absence of added heparin was found to be 10 fold.

In the case of “wild-type human FGF-1, 140 amino acid form, with an additional amino-terminal six His tag (from UniProt P05230 16-155) (ligand)”, the EC50 of mitogenic activity, NIH 3T3 fibroblast proliferation, in the absence of heparin amounted to 58.4 ng/mL and the EC50 of mitogenic activity, NIH 3T3 fibroblast proliferation, in the presence of 10 U/ml heparin turned out to be 0.48 ng/mL.
